For one assay, the target named is HLA-A*30:01. The assay is described as follows: IEDB peptide-MHC binding, purified MHC/competitive/radioactivity; filed as Kd, often an IC50 or EC50 that approximates it; ≥ and ≤ were set here for values at or beyond the usual limits of such assays.
The target of the next assay is HLA-B*58:01. The assay is described as follows: IEDB peptide-MHC binding, purified MHC/direct/fluorescence; filed as Kd, often an IC50 or EC50 that approximates it; ≥ and ≤ were set here for values at or beyond the usual limits of such assays. The following applies: source organism: Mycobacterium tuberculosis.
A further assay deals with HLA-B*15:01. The description is as above.
Assay [1] concerns the target HLA-A*02:01. The assay is described as follows: IEDB peptide-MHC binding, purified MHC/competitive/fluorescence; ≥ and ≤ were set here for values at or beyond the usual limits of such assays.
The target of the next assay is HLA-A*03:01. Description: IEDB peptide-MHC binding, purified MHC/direct/fluorescence; filed as Kd, often an IC50 or EC50 that approximates it; ≥ and ≤ were set here for values at or beyond the usual limits of such assays. The following applies: source organism: Vibrio parahaemolyticus RIMD 2210633.
For assay [2], the target named is HLA-A*01:01. Description: IEDB peptide-MHC binding, purified MHC/competitive/radioactivity; filed as Kd, often an IC50 or EC50 that approximates it; ≥ and ≤ were set here for values at or beyond the usual limits of such assays.
In the next assay the target is HLA-A*30:02. The description is as above.
In another assay the target is HLA-A*68:01. Described as above. The following applies: source organism: Dengue virus 2 Jamaica/1409/1983.
For the next assay, the target named is HLA-A*26:01. The assay is described as above.
Assay [3] deals with HLA-A*01:01. The assay is described as follows: IEDB peptide-MHC binding, purified MHC/direct/fluorescence; filed as Kd, often an IC50 or EC50 that approximates it; ≥ and ≤ were set here for values at or beyond the usual limits of such assays. The following applies: source organism: Homo sapiens.
In assay [4] the target is HLA-A*02:01. The description is as above.
In another assay the target is HLA-A*23:01. The assay is described as follows: IEDB peptide-MHC binding, purified MHC/competitive/radioactivity; filed as Kd, often an IC50 or EC50 that approximates it; ≥ and ≤ were set here for values at or beyond the usual limits of such assays.
A further assay deals with HLA-A*02:06. The description is as above.
A further assay has as its target HLA-A*02:03. Described as above.
In another assay the target is HLA-A*02:02. The assay is described as above.
[5] abbreviates: source organism: Dengue virus 1 Brazil/97-11/1997.
Where [6] appears, read: source organism: Dengue virus 4 Philippines/H241/1956.
Where [7] appears, read: source organism: Vaccinia virus WR.
The mark [8] stands for this setting: source organism: Sudan ebolavirus.
Where [9] appears, read: source organism: Dengue virus 2 Jamaica/1409/1983.
Setting [10] is: source organism: Dengue virus 3 Martinique/1243/1999.
[11] abbreviates: source organism: Zaire ebolavirus.
[12] abbreviates: source organism: Dengue virus 3 Singapore/8120/1995.
The mark [13] stands for this setting: source organism: Lymphocytic choriomeningitis virus (strain Armstrong).
Setting [14] is: source organism: SARS coronavirus Tor2.
Setting [15] is: source organism: Mammarenavirus brazilense.

What is called Kd is a measure of binding affinity in units of concentration. What is called IC50 is the midpoint of a concentration-inhibition curve.

With RVSTGSQLA, in the assay with HLA-A*30:01 (setting [5]), the Kd was 81.3 nM.
As for GGTPAVEEW, the Kd with HLA-B*58:01 came out at 202 nM.
In turn, GVKGFSFKY gave a Kd with HLA-B*15:01 (source organism: Influenza A virus (A/eka/Thailand/EkA1NRC/2004(H5N1))) not below 20000 nM.
Turning to ERNRVSTPQG, the Kd with HLA-A*30:01 (setting [6]) was 121 nM.
As for AAMISLAKK, in the assay with HLA-A*30:01 (setting [7]), the Kd was 151 nM.
On the same count and under the same terms, next, KISISSLCK: 88.1 nM.
In the case of MPLGVVTNS, in the assay with HLA-A*02:01 [1] (setting [8]), the IC50 worked out at 13000 nM.
In the assay with HLA-A*03:01, LLQAGASVK had a Kd of 79 nM.
In the case of LIGNEEYTDY, the Kd with HLA-A*01:01 [2] (setting [9]) came out at 1070 nM.
Take AGKRSLRPQP: the Kd with HLA-A*30:01 (setting [9]) worked out at 1900 nM.
Turning to GVPLLALGCY, the Kd with HLA-A*30:02 (setting [5]) came to 37.6 nM.
Take KVASEGIKY: the dissociation constant (Kd) in the assay with HLA-A*30:02 (setting [10]) stood at 1740 nM.
On to ETAECPNTNR, for which the values for the Kd with HLA-A*68:01 and in the assay with HLA-A*26:01 (setting [9]) were 13.9 nM and 10500 nM, respectively.
In the case of LLWYRRGTF, in the assay with HLA-B*15:01 (source organism: Mycobacterium tuberculosis C), the equilibrium dissociation constant (Kd) was 360 nM.
On to RTRVGTKHA, for which the Kd with HLA-A*30:01 (setting [9]) was 0.02 nM.
On to KTMGSCIQM, for which, in the assay with HLA-A*30:01 (setting [7]), the Kd was 52.3 nM.
EKLRIKGMSY: the Kd with HLA-A*26:01 (setting [6]) was found to be 4650 nM.
Consider HSLISNLLV, for which the Kd with HLA-A*30:01 (source organism: Vaccinia virus Copenhagen) came out at 558 nM.
Consider YLDFGGPEG, for which the Kd in the assay with HLA-A*01:01 [3] came out at 2460 nM; with HLA-A*02:01 [4] (source organism: Homo sapiens), 1500 nM.
GTKIALLEL: the Kd in the assay with HLA-A*30:01 (setting [7]) came out at 1.34 nM.
For IFITDNVHTW, in the assay with HLA-A*23:01 (setting [9]), the Kd turned out to be 36.7 nM.
Take TLILAGVSLL: in the assay with HLA-A*26:01 (setting [10]), the Kd was found to be 6690 nM.
As to EQGLIQYPT, in the assay with HLA-A*02:01 [1] (setting [11]), the 50% inhibitory concentration (IC50) is 60500 nM.
In the assay with HLA-A*02:01 [1] (setting [11]), IDQIIHDFV had an IC50 not below 195000 nM.
Take AIVNAQPKC: the IC50 in the assay with HLA-A*02:01 [1] (setting [11]) is not below 73800 nM.
In the assay with HLA-A*02:01 [1] (source organism: Hepatitis C virus genotype 1), SVIDCNTCV displayed an IC50 of 5000 nM.
Take SFGCKPLTMF: the Kd in the assay with HLA-A*23:01 (setting [5]) came to 103 nM.
Regarding LICGLRQLA, the IC50 with HLA-A*02:01 [1] (setting [11]) was found to be 995 nM.
TTIAVSMAN: in the assay with HLA-A*26:01 (setting [9]), the Kd was 5160 nM.
Turning to ILPEEQDQNY, the Kd in the assay with HLA-A*30:02 (setting [12]) was not below 37200 nM; with HLA-A*01:01 [2] (setting [12]), not below 38700 nM.
In turn, GLNLEGNGV showed an IC50 with HLA-A*02:01 [1] (setting [11]) of 10800 nM.
As to KVHEISARG, the Kd in the assay with HLA-A*30:01 (setting [7]) was found to be 176 nM.
TWLVHKQWFL: the Kd in the assay with HLA-A*23:01 (setting [6]) is 124 nM.
ILDGENCTL returned a Kd in the assay with HLA-A*02:01 [4] (source organism: Influenza A virus (A/Jiangsu/38/2004(H3N2))) of 37.8 nM.
With KVAAEGINY, the Kd in the assay with HLA-A*30:02 (source organism: Dengue virus 2 Peru/IQT2913/1996) amounted to 110 nM.
As to KMRDTLPAK, the Kd with HLA-A*30:01 (setting [7]) stood at 1.58 nM.
As to GLRQLANET, in the assay with HLA-A*02:01 [1] (setting [8]), the IC50 stood at 34200 nM.
In the assay with HLA-A*02:01 [1] (source organism: West Nile virus NY-99), ATWAENIQV returned an IC50 of 780 nM.
Regarding EYHLLYQKT, the Kd in the assay with HLA-A*30:02 (setting [13]) is not below 35000 nM; with HLA-A*26:01 (setting [13]), not below 77900 nM.
For the sequence FLPQIGGEAI, the Kd came out at 10.1 nM in the assay with HLA-A*02:06 (setting [7]), 13.5 nM in the assay with HLA-A*02:03 (setting [7]) and 0.998 nM with HLA-A*02:02 (setting [7]).
On the same counts, the results for TIAVSVYGAI are 5390 nM, 582 nM and 1550 nM.
Regarding LSRKTFDSEY, the Kd with HLA-A*30:02 (setting [9]) amounted to 627 nM; with HLA-A*01:01 [2] (setting [9]), 1820 nM.
For WLLWPVTLA, the Kd in the assay with HLA-A*02:06 (setting [14]) stood at 17.4 nM; in the assay with HLA-A*02:03 (setting [14]) it was 1.2 nM; with HLA-A*02:02 (setting [14]) it was 11.8 nM.
Take MIIGEPIIVA: the figures for the Kd with HLA-A*02:06 (setting [7]), in the assay with HLA-A*02:03 (setting [7]) and in the assay with HLA-A*02:02 (setting [7]) were 124 nM, 111 nM and 42 nM, respectively.
With KLVETGFVI, the Kd in the assay with HLA-A*02:06 (setting [7]) worked out at 200 nM; in the assay with HLA-A*02:03 (setting [7]), 1070 nM; with HLA-A*02:02 (setting [7]), 13200 nM.
With CTEETKRNIA, the Kd in the assay with HLA-A*02:06 (setting [7]) is not below 69800 nM; with HLA-A*02:03 (setting [7]), not below 50100 nM; with HLA-A*02:02 (setting [7]), not below 70000 nM.
With GLSASDVDM, the figures for the Kd with HLA-A*02:06 (setting [7]), in the assay with HLA-A*02:03 (setting [7]) and in the assay with HLA-A*02:02 (setting [7]) were 13800 nM, 3540 nM and 497 nM, respectively.
Take IWYMWLGARY: the Kd with HLA-A*30:02 (setting [10]) is 3.2 nM.
PVLEKKVCAI: the values for the dissociation constant Kd with HLA-A*02:06 (setting [7]), with HLA-A*02:03 (setting [7]) and with HLA-A*02:02 (setting [7]) were 1050 nM, 1190 nM and 541 nM, respectively.
For ICFWSTLFFT, the figures for the Kd in the assay with HLA-A*02:06 (setting [15]), in the assay with HLA-A*02:03 (setting [15]) and with HLA-A*02:02 (setting [15]) were not below 34900 nM, not below 35100 nM and not below 33200 nM, respectively.
MTDDIGMGVT: the Kd with HLA-A*01:01 [2] (setting [9]) was 1130 nM.
In turn, GLDDQEKKI displayed an IC50 in the assay with HLA-A*02:01 [1] (setting [11]) of 41200 nM.
Take ALYSPPLISI: the Kd with HLA-A*02:06 (setting [7]) was determined as 162 nM; with HLA-A*02:03 (setting [7]), 150 nM; with HLA-A*02:02 (setting [7]), 1.42 nM.

Values taken from the Immune Epitope Database (IEDB).
